Paper PMC7541481, “A unique clade of light-driven proton-pumping rhodopsins evolved in the cyanobacterial lineage” (Scientific Reports, 2020)

Experiments:
[1] = biological target: T1, N2098R (Calothrix sp., UniProt Z9R0O1FWN2); experiment: X-ray crystal structure ([…] Å); retinal isomer HPLC; assay type: binding; details: covalent; Schiff base with Lys204; in meso crystals
T1 construct: crystal: E. coli cell-free synthesis; retinal analysis: synthetic codon-optimized gene in pET21a, E. coli, C-terminal His-tag, DDM-solubilized
T1 sequence (Z9R0O1FWN2 8-254): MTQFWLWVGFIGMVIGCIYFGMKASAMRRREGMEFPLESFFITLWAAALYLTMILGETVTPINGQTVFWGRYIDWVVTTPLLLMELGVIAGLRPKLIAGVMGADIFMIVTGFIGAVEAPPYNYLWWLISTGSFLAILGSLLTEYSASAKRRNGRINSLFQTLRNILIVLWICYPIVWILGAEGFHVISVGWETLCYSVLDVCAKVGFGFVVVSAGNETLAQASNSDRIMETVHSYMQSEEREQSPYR

[2] = biological target: T2, N4075R (Tolypothrix sp., UniProt Z9F5K4BE25); experiment: X-ray crystal structure ([…] Å); assay type: binding; details: covalent; Schiff base lysine; isomer not stated for this protein
T2 construct: E. coli cell-free synthesis for crystallization, in meso
T2 sequence (Z9F5K4BE25 8-259): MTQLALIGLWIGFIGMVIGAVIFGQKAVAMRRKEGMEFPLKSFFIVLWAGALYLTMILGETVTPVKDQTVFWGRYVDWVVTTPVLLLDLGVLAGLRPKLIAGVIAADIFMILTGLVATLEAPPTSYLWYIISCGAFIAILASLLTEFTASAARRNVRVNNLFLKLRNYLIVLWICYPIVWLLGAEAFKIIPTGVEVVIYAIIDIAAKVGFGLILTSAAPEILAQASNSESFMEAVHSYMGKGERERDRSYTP

[3] = biological target: Asp85 (UniProt position 98, WARYADWLFTT); details: cited from earlier work
[4] = biological target: Asp121 (UniProt position 121, AYRYVDWLLTV); details: cited from earlier work
[5] = biological target: Asp97 (UniProt position 97, VFRYIDWLLTV); details: cited from earlier work
[6] = biological target: Asp74 (position 74, …); experiment: UV-vis; details: room temperature (approx. 25°C); 50 mM NaCl; seven-mix buffer (Tris, citric acid, MES, HEPES, MOPS, CHES, CAPS; 10 mM each); dark/unphotolysed state under room light, all-trans retinal bound, detergent-solubilised, folded (reversibility checked)

Molecule: CC1=C(/C=C/C(C)=C/C=C/C(C)=C/C=O)C(C)(C)CCC1 [all-trans retinal]
- X-ray crystal structure (2.65 Å); retinal isomer HPLC [1]: the isomeric state of retinal was predominantly all-trans
- X-ray crystal structure (1.9 Å) [2]: Since the two structures were almost identical, only the structure of N2098R is described

Molecule: Bacteriorhodopsin (BR) (Halobacterium salinarum)
- pKa [3]: Approx. 2.6

Molecule: Gloeobacter rhodopsin (GR) (Gloeobacter violaceus PCC 7421)
- pKa [4]: Approx. 5.9

Molecule: Green-absorbing proteorhodopsin (GPR) (uncultured marine gamma proteobacterium EBAC31A08)
- pKa [5]: Approx. 7.9

B1: Cyanorhodopsin N2098R (Calothrix sp. NIES-2098) (protein)
chain: T1 sequence (Z9R0O1FWN2 8-254)
- pKa [6]: < 2.0
